In article PMC4502909:

Molecular target: Pig heart citrate synthase (pig) (UniProt P00889)
UniProt P00889, sequence (P00889 28-464): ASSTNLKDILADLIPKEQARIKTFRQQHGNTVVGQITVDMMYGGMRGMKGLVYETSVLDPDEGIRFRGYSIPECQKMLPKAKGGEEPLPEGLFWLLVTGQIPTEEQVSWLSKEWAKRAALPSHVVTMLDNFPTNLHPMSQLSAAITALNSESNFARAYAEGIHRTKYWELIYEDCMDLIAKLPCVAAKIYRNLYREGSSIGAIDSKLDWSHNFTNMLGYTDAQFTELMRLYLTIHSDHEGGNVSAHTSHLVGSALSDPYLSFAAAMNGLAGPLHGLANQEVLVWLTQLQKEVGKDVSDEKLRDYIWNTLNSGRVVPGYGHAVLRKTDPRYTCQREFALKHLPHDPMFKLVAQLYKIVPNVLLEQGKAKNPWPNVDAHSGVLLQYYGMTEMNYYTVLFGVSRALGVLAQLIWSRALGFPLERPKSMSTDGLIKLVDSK

In the case of “rHtrA1 (HtrA1-ΔTM-Ser255Ala-His6), secreted soluble C-terminal region of Staphylococcus aureus strain COL HtrA1 (domain or fragment)”, the reduction of the thermal aggregation of citrate synthase (0.8 µM, 44°C, absorbance/light scattering at 650 nm) by 5 µM rHtrA1 is reported as 30%.
For “rHtrA2 (HtrA2-ΔTM-Ser619Ala-His6), secreted soluble C-terminal region of Staphylococcus aureus strain COL HtrA2 (domain or fragment)”, the reduction of the thermal aggregation of citrate synthase (0.8 µM, 44°C, absorbance/light scattering at 650 nm) by 5 µM rHtrA2 was 30%.
